Assay results taken from the supplement of paper PMC10567573.

B1: VAMP4 (parent)
chain: FLRGPSGPRFGPRNDKIKHVQNQV

Variants of: B1
Assay: protein stability index of a GFP-peptide fusion (GPS, HEK-293T) (PSI 1-6); higher = more stable
Details: c terminus: a fixed tail appended
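Note: lentivirally expressed fusions sorted by FACS into six bins by GFP to DsRed ratio, PSI derived from sequencing read proportions per bin multiplied by bin number.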

| Variant | protein stability index |
| --- | --- |
| FLRGPSLPRFGPRNDKIKHVQNQV [G7L] | 2.37 |
| FLRGPSTPRFGPRNDKIKHVQNQV [G7T] | 2.66 |
| FLRGPSMPRFGPRNDKIKHVQNQV [G7M] | 2.24 |
| FLRGPSIPRFGPRNDKIKHVQNQV [G7I] | 3.02 |
| FLRGPSPPRFGPRNDKIKHVQNQV [G7P] | 3.24 |
| FLRGPSRPRFGPRNDKIKHVQNQV [G7R] | 1.71 |
| FLRGPSCPRFGPRNDKIKHVQNQV [G7C] | 2.94 |
| FLRGPSYPRFGPRNDKIKHVQNQV [G7Y] | 1.96 |
| FLRGPSAPRFGPRNDKIKHVQNQV [G7A] | 2.69 |
| FLRGPSQPRFGPRNDKIKHVQNQV [G7Q] | 2.68 |
| FLRGPSSPRFGPRNDKIKHVQNQV [G7S] | 2.77 |
| FLRGPSHPRFGPRNDKIKHVQNQV [G7H] | 2.86 |
| FLRGPSNPRFGPRNDKIKHVQNQV [G7N] | 2.74 |
| FLRGPSDPRFGPRNDKIKHVQNQV [G7D] | 2.44 |
| FLRGPSVPRFGPRNDKIKHVQNQV [G7V] | 2.44 |
| FLRGPSEPRFGPRNDKIKHVQNQV [G7E] | 2.79 |
| FLRGPSFPRFGPRNDKIKHVQNQV [G7F] | 1.85 |
| FLRGPSKPRFGPRNDKIKHVQNQV [G7K] | 2.32 |
| FLRGPSGPRFKPRNDKIKHVQNQV [G11K] | 2.57 |
| FLRGPSGPRFFPRNDKIKHVQNQV [G11F] | 2.2 |
| FLRGPSGPRFDPRNDKIKHVQNQV [G11D] | 2.63 |
| FLRGPSGPRFEPRNDKIKHVQNQV [G11E] | 3.51 |
| FLRGPSGPRFHPRNDKIKHVQNQV [G11H] | 2.81 |
| FLRGPSGPRFAPRNDKIKHVQNQV [G11A] | 2.75 |

| Variant | protein stability index |
| --- | --- |
| FLRGPSGPRFCPRNDKIKHVQNQV [G11C] | 2.37 |
| FLRGPSGPRFIPRNDKIKHVQNQV [G11I] | 2.12 |
| FFRGPSGPRFGPRNDKIKHVQNQV [L2F] | 3 |
| FVRGPSGPRFGPRNDKIKHVQNQV [L2V] | 1.48 |
| FARGPSGPRFGPRNDKIKHVQNQV [L2A] | 2.48 |
| FWRGPSGPRFGPRNDKIKHVQNQV [L2W] | 2.9 |
| FIRGPSGPRFGPRNDKIKHVQNQV [L2I] | 1.97 |
| FMRGPSGPRFGPRNDKIKHVQNQV [L2M] | 2.99 |
| FERGPSGPRFGPRNDKIKHVQNQV [L2E] | 3.71 |
| FDRGPSGPRFGPRNDKIKHVQNQV [L2D] | 3.08 |
| FSRGPSGPRFGPRNDKIKHVQNQV [L2S] | 3.37 |
| FRRGPSGPRFGPRNDKIKHVQNQV [L2R] | 3.43 |
| FNRGPSGPRFGPRNDKIKHVQNQV [L2N] | 2.69 |
| FGRGPSGPRFGPRNDKIKHVQNQV [L2G] | 2.87 |
| FKRGPSGPRFGPRNDKIKHVQNQV [L2K] | 3.21 |
| FHRGPSGPRFGPRNDKIKHVQNQV [L2H] | 1.95 |
| FYRGPSGPRFGPRNDKIKHVQNQV [L2Y] | 2.61 |
| FTRGPSGPRFGPRNDKIKHVQNQV [L2T] | 2.99 |
| FQRGPSGPRFGPRNDKIKHVQNQV [L2Q] | 2.73 |
| FCRGPSGPRFGPRNDKIKHVQNQV [L2C] | 2.11 |
| FPRGPSGPRFGPRNDKIKHVQNQV [L2P] | 3.18 |
| FLRCPSGPRFGPRNDKIKHVQNQV [G4C] | 2.24 |
| FLRMPSGPRFGPRNDKIKHVQNQV [G4M] | 2.57 |
| FLRWPSGPRFGPRNDKIKHVQNQV [G4W] | 1.96 |

| Variant | protein stability index |
| --- | --- |
| FLRYPSGPRFGPRNDKIKHVQNQV [G4Y] | 2.24 |
| FLRTPSGPRFGPRNDKIKHVQNQV [G4T] | 3.17 |
| FLRFPSGPRFGPRNDKIKHVQNQV [G4F] | 2.47 |
| FLRRPSGPRFGPRNDKIKHVQNQV [G4R] | 3.22 |
| FLRKPSGPRFGPRNDKIKHVQNQV [G4K] | 2.82 |
| FLRAPSGPRFGPRNDKIKHVQNQV [G4A] | 3.07 |
| FLRHPSGPRFGPRNDKIKHVQNQV [G4H] | 2.85 |
| FLRSPSGPRFGPRNDKIKHVQNQV [G4S] | 3.06 |
| FLRVPSGPRFGPRNDKIKHVQNQV [G4V] | 2.6 |
| FLRPPSGPRFGPRNDKIKHVQNQV [G4P] | 3.12 |
| FLRNPSGPRFGPRNDKIKHVQNQV [G4N] | 3.08 |
| FLRDPSGPRFGPRNDKIKHVQNQV [G4D] | 2.99 |
| FLRIPSGPRFGPRNDKIKHVQNQV [G4I] | 2.05 |
| FLREPSGPRFGPRNDKIKHVQNQV [G4E] | 3.17 |
| FLRQPSGPRFGPRNDKIKHVQNQV [G4Q] | 3.2 |
| FLRLPSGPRFGPRNDKIKHVQNQV [G4L] | 2.59 |
| FLRGFSGPRFGPRNDKIKHVQNQV [P5F] | 2.29 |
| FLRGSSGPRFGPRNDKIKHVQNQV [P5S] | 2.96 |
| FLRGGSGPRFGPRNDKIKHVQNQV [P5G] | 2.43 |
| FLRGNSGPRFGPRNDKIKHVQNQV [P5N] | 2.94 |
| FLRGCSGPRFGPRNDKIKHVQNQV [P5C] | 2.48 |
| FLRGESGPRFGPRNDKIKHVQNQV [P5E] | 3.15 |
| FLRGKSGPRFGPRNDKIKHVQNQV [P5K] | 2.95 |
| FLRGASGPRFGPRNDKIKHVQNQV [P5A] | 2.79 |

| Variant | protein stability index |
| --- | --- |
| FLRGDSGPRFGPRNDKIKHVQNQV [P5D] | 3.36 |
| FLRGMSGPRFGPRNDKIKHVQNQV [P5M] | 2.37 |
| FLRGTSGPRFGPRNDKIKHVQNQV [P5T] | 2.86 |
| FLRGLSGPRFGPRNDKIKHVQNQV [P5L] | 2.59 |
| FLRGRSGPRFGPRNDKIKHVQNQV [P5R] | 2.72 |
| FLRGQSGPRFGPRNDKIKHVQNQV [P5Q] | 2.98 |
| FLRGWSGPRFGPRNDKIKHVQNQV [P5W] | 1.55 |
| FLRGISGPRFGPRNDKIKHVQNQV [P5I] | 2.17 |
| FLRGYSGPRFGPRNDKIKHVQNQV [P5Y] | 2.04 |
| FLRGHSGPRFGPRNDKIKHVQNQV [P5H] | 3.3 |
| FLRGVSGPRFGPRNDKIKHVQNQV [P5V] | 2.29 |
| FLRGPSGLRFGPRNDKIKHVQNQV [P8L] | 1.61 |
| FLRGPSGARFGPRNDKIKHVQNQV [P8A] | 2.62 |
| FLRGPSGCRFGPRNDKIKHVQNQV [P8C] | 2.44 |
| FLRGPSGGRFGPRNDKIKHVQNQV [P8G] | 2.41 |
| FLRGPSGMRFGPRNDKIKHVQNQV [P8M] | 2.53 |
| FLRGPSGERFGPRNDKIKHVQNQV [P8E] | 3.19 |
| FLRGPSGHRFGPRNDKIKHVQNQV [P8H] | 2.52 |
| FLRGPSGIRFGPRNDKIKHVQNQV [P8I] | 2.53 |
| FLRGPSGWRFGPRNDKIKHVQNQV [P8W] | 1.79 |
| FLRGPSGDRFGPRNDKIKHVQNQV [P8D] | 3.01 |
| FLRGPSGSRFGPRNDKIKHVQNQV [P8S] | 2.58 |
